The values below come from patent publication US20020143152A1, “Polypeptides, their production and use” (priority 1997, published 2002).

In the assay the target is T1, full-length human pituitary G protein-coupled receptor protein (phGR3) expressed in CHO-19P2 cells (Homo sapiens, UniProt P49683).
T1 construct: a ligation reaction was carried out to construct a full-length receptor protein expression plasmid pAKKO-19P2; expressed in transfected cells
T1 sequence (P49683 1-370): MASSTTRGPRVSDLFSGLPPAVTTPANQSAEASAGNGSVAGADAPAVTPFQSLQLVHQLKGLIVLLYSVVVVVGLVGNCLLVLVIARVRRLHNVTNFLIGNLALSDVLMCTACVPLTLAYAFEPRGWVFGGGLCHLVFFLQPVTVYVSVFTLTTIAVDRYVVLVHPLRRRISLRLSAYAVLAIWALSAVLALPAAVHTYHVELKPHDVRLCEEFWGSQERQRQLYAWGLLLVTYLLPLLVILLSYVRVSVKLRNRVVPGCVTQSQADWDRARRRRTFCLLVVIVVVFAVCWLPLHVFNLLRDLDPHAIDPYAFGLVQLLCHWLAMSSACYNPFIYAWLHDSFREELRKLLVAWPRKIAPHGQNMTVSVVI
Kind of assay: release of [3H] arachidonic acid metabolites from CHO-19P2 cells. Particulars: synthetic peptide diluted with 0.05% BSA-HBSS to 10^−12M-10^−6M; radioactivity of [3H] arachidonic acid metabolites released in supernatant. The format is cell-based. On the procedure:
The full-length receptor protein-expressed CHO cells and mock CHO cells were seeded in a 24-well plate, 0.5×10^5 cells/well, and cultured for 24 hours. Then, [^3H] arachidonic acid was added at a final concentration of 0.25μCi/well. Sixteen (16) hours after addition of [^3H] arachidonic acid, the cells were rinsed with 0.05% BSA-HBSS and the above-mentioned crude peptide fraction was added, 400 μl/well. The mixture was incubated at 37 C. for 30 minutes and a 300 μl portion of the reaction mixture (400 μl) was added to a scintillator (4 ml) and the amount of [^3H] arachidonic acid metabolite released into the reaction mixture was determined with a scintillation counter. As a result, an arachidonic acid metabolite-releasing activity specific to the full-length receptor protein expressed CHO cells (CHO-19P2) was detected in the 30% CH3CN fraction of the eluate FIG. 16.
The activity of the peptide (19P2-L31) synthesized in Example 21 to specifically release arachidonic acid metabolites from CHO-19P2 cells was assayed in the same manner as Example 11. The synthetic peptide was dissolved in degassed distilled water at a concentration of 10^−3M and diluted with 0.05% BSA-HBSS and the activity to promote release of arachidonic acid metabolites from CHO-19P2 cells at each concentration was assayed using the amount of [^3H] arachidonic acid metabolites as the indicator.
The activity of the synthetic equivalent (19P2- L20) of natural peptide P-2 as synthesized in Example 23 to specifically promote release of arachidonic acid metabolites from CHO-19P2 cells was determined as in Example 11. Thus, the synthetic peptide was dissolved in degassed distilled water at a final concentration of 10^−3M and this solution was serially diluted with 0.05% BAS-HBSS. The activity to specifically promote release of arachidonic acid metabolites from CHO-19P2 cells at each concentration was assayed using the amount of [^3H] arachidonic acid metabolites as the indicator.

“Also recorded” adds a separate entry of the source. Non-standard residues stand in square brackets, D forms with d. No end group written: not given here. Met(O) = CS(=O)CC[C@H](N)C(=O)O

For the substance “Ser-Arg-Ala-His-Gln-His-Ser-Met(O)-Glu-Ile-Arg-Thr-Pro-Asp-Ile-Asn-Pro-Ala-Trp-Tyr-Ala-Gly-Arg-Gly-Ile-Arg-Pro-Val-Gly-Arg-Phe-NH2 (SRAHQHS[Met(O)]EIRTPDINPAWYAGRGIRPVGRF-NH2; N-terminus assumed; SMILES CC[C@H](C)[C@H](NC(=O)CNC(=O)[C@H](CCCNC(=N)N)NC(=O)CNC(=O)[C@H](C)NC(=O)[C@H](Cc1ccc(O)cc1)NC(=O)[C@H](Cc1c[nH]c2ccccc12)NC(=O)[C@H](C)NC(=O)[C@@H]1CCCN1C(=O)[C@H](CC(N)=O)NC(=O)[C@@H](NC(=O)[C@H](CC(=O)O)NC(=O)[C@@H]1CCCN1C(=O)[C@@H](NC(=O)[C@H](CCCNC(=N)N)NC(=O)[C@@H](NC(=O)[C@H](CCC(=O)O)NC(=O)[C@H](CCS(C)=O)NC(=O)[C@H](CO)NC(=O)[C@H](Cc1c[nH]cn1)NC(=O)[C@H](CCC(N)=O)NC(=O)[C@H](Cc1c[nH]cn1)NC(=O)[C@H](C)NC(=O)[C@H](CCCNC(=N)N)NC(=O)[C@@H](N)CO)[C@@H](C)CC)[C@@H](C)O)[C@@H](C)CC)C(=O)N[C@@H](CCCNC(=N)N)C(=O)N1CCC[C@H]1C(=O)N[C@H](C(=O)NCC(=O)N[C@@H](CCCNC(=N)N)C(=O)N[C@@H](Cc1ccccc1)C(N)=O)C(C)C) [19P2-L31(O), methionine-oxidation product of 19P2-L31]”, the “activity to specifically promote release of arachidonic acid metabolites from CHO-19P2 cells” value (from here on “activity to specifically promote release”) is “equivalent to the activity of 19P2-L31; also recorded: found in a dose-dependent manner”.

On to “Ser-Arg-Ala-His-Gln-His-Ser-Met-Glu-Ile-Arg-Thr-Pro-Asp-Ile-Asn-Pro-Ala-Trp-Tyr-Ala-Gly-Arg-Gly-Ile-Arg-Pro-Val-Gly-Arg-Phe-NH2 (SRAHQHSMEIRTPDINPAWYAGRGIRPVGRF-NH2) [19P2-L31]”, for which the “activity to specifically promote release” value is given as “concentration-dependent arachidonic acid metabolite-releasing activity was detected over the range of 10^−12M -10^−6M; also recorded: found in a concentration-dependent manner”.

Regarding “Thr-Pro-Asp-Ile-Asn-Pro-Ala-Trp-Tyr-Ala-Gly-Arg-Gly-Ile-Arg-Pro-Val-Gly-Arg-Phe-NH2 (TPDINPAWYAGRGIRPVGRF-NH2) [19P2-L20]”, the “activity to specifically promote release” value is “concentration-dependent arachidonic acid metabolite-releasing activity was detected over the range of 10^−12 -10^−6M in nearly the same degree as 19P2-L31; also recorded: found in a dose-dependent manner”.
